The text below walks through data of article PMC8016844.

Test [1] deals with Grb2 (Homo sapiens) (UniProt P62993). To be noted: cited from earlier work.
Test [2] addresses isolated CSH3 domain of Grb2 (Grb2_(CSH3)). Briefly: MST; target protein labelled with Atto 488 NHS ester, 100 nM; unlabelled ligand serially diluted; Monolith NT.115; 25 °C; 20 mM HEPES pH 7.5, 150 mM NaCl, 0.5 mM TCEP, 0.005% Tween 20.
For test [3], the target named is Shp2 N-terminal SH2 domain (Shp2_(NSH2)) (UniProt Q06124). The description is as above.

With Grb2 (from UniProt P62993), the Kd in test [1] is 0.8 µM.
Substance “Shp2 PTP domain peptide TKCNNS322KPKK325SYIATQ” returned a Kd in test [2] of 173 µM.
In test [2], “Shp2 PTP domain peptide VERGKS366KCVK369YWPDEY” yielded a Kd of 122 µM.
“Shp2 PTP domain peptide WPDHGV429PSDP432GGVLDF” gave a Kd in test [2] of 18.1 µM.
The substance “isolated CSH3 domain of Grb2 (Grb2_(CSH3)) (domain or fragment)” came in with a Kd in test [3] of 207 µM.

As a reminder, the Kd is a measure of binding affinity in units of concentration.
